Source: paper PMC3592454

Molecular target: RNA polymerase holoenzyme with sigma70 Q437A (Escherichia coli, UniProt P00579;P0A7Z4;P0A8V2;P0A8T7;P0A800 1-613;1-329;1-1342;1-1407;2-91, Q437A)
Experiment: fluorescence anisotropy

Binder	Kd [nM]
PR (WT) (dsDNA, 5'-C6-amino linker) DNA 1: GCGTGTTGACTATTTTACCTCTGGCGGTGATAATGGTTGCATGTACTAAGGAGGTTGTATGGAACAACGCA DNA 2: TGCGTTGTTCCATACAACCTCCTTAGTACATGCAACCATTATCACCGCCAGAGGTAAAATAGTCAACACGC	14.9
P1 galP1+P2-P3+ (dsDNA, 5'-C6-amino linker) DNA 1: TTTTCGCATCTTTTCGTTGCTATGGTTATTTCATACCATAAGCCTAATGGAGCGAATTATGAG DNA 2: CTCATAATTCGCTCCATTAGGCTTATGGTATGAAATAACCATAGCAACGAAAAGATGCGAAAA	0.76 ± 0.1
